According to the DeepSol protein solubility set:

Test: soluble on expression in E. coli; label from the status in PepcDB or PDB records

**Q.** Which “soluble on expression in E. coli” value does the source give for “MGSDKIHHHHHHMHTDINALFAALWQDYIQMTPSAAKVHALLGHGKPIINDHIALRTFNIAKVNLDVLAKHFTSLGYVACGDYKFEQKKLVAKHFEHPDSTQPKVFISELLVEEFSPALQATIQGLIAQVDVAATTADNFIYSGRHWSLDSQTYEDLLAESEYAAWVAAFGYRANHFTVSINHLDGFDTLESVNNALKQAGFVLNSSGGEIKGSPEVLLEQSSTMADKIGVEFTNATVEIPSCFYEFALRYPMANGELYTGFVAASADKIFESTNVNKA” here?
**A.** not soluble

**Q.** For “MRLPALFLAHGSPMLAIEDNAYTAFLGKLGEGIRPQAVVIFTAHWMTRQPTVSAVEGTYDMIYDFSGFPRELYEVVYLARGSVEWAERVRERLAGVAEVAVDSTRGLDHGSWVLLHRLFPNADIPVVQASVLPWWTPKQLFQLGEALRPLRDEGLMVIGSGGTVHNLMALRWEGHAEADAWAMAFDDWLLSRSAAHSEEVFDYENKAPYAKQAVPTPEHLAPYWIAYGAGDRDQAPRVLFREYQYGSLSLMAVTF”, which “soluble on expression in E. coli” value is on record?
**A.** not soluble

**Q.** For “MAHSKHGLKEEMTMKYHMEGCVNGHKFVITGEGIGYPFKGKQTINLCVIEGGPLPFSEDILSAGFMYGDRIFTEYPQDIVDYFKNSCPAGYTWGRSFLFEDGAVCICNVDITVSVKENCIYHKSIFNGMNFPADGPVMKKMTTNWEASCEKIMPVPKQGILKGDVSMYLLLKDGGRYRCQFDTVYKAKSVPSKMPEWHFIQHKLLREDRSDAKNQKWQLTEHAIAFPSALA”, which “soluble on expression in E. coli” value is on record?
**A.** soluble

**Q.** Which “soluble on expression in E. coli” value does the source give for “GPGSMADFPKLARIKLDDENMEKIHCAARKGQTEEVKRLVEQGIDPAIPNRFGCTALHLACKHGQIETAKYLSSICDVHGAWHGQRPLHLAVLSNKEVLVEALVEGARERGRNVEIMLNECDDVSVDDIGEHQKHTDGQTALHWCVALGDNYLPMLRLLIRLGASPTAKNKENVTSMMYAMEFKNEAAMEEMVKGVKPQQLRLDYQDKEGRTHLHYAILHNRQDYAMRFIEMGHDPQMEDDNHETPLFLALRAAMPDLLTYLLQNVDSFSVQQAPFHNGSVMVAERIQWLEFATDEQARTECIRLFQKRLDEVSFRPEETEKKRAKPTVKKMKLAPSAPLRSRSIGNASALRSRSIGGRISGK” here?
**A.** soluble

**Q.** For “MLSDYEEFLRLEKARKIILEILNEKGRDALYDLSGLSGGFLIDEKDKALLNTYIGSSYFAEKVNEYGLKHLGGDENDKCVGFNRTSSAILATILALKPKKVIHYLPELPGHPSIERSCKIVNAKYFESDKVGEILNKIDKDTLVIITGSTMDLKVIELENFKKVINTAKNKEAIVFVDDASGARVRLLFNQPPALKLGADLVVTSTDKLMEGPRGGLLAGKKELVDKIYIEGTKFGLEAQPPLLAGIYRALKNFNLERIRKAFERAKNFDLSKIEKLNKELKAIDDNINIVYERTPTGFVIKRVYKDDTINIKKLIEIGFNLLKNYGIITITVAGMPGASKSLRIDLTSRDAERIDDNYIIKAIVESIKMAFKS”, which “soluble on expression in E. coli” value is on record?
**A.** soluble

**Q.** For “MSSGVPVLHWNFGIGPITCHAWNKDRTQIAVSASSNDIHIFEWRNGDWQSIHTLSEHDLPVTGLDWGTKTNRIVSCSQDKNAFVWTFDKNVWKPELVLVRFNRAATYVKWSPLENKFAVGSGAKLVSVCYYEKENDWWVSKQIKKPIRSTVTCLDWHSNNVLLAVGSCDFKCRVFSAYVKEVDEKPSPNPWGQKMPFGQLMSEYSVGGWVHRVAFSPSGCRLAFVSHDSSVSFVDSTVDSQKVQNLLTIHLPFTTVEWITENSVVTAGHDCSPVLFVVSQDVLKEVCKLDVPSAAKSSTVNSALQLFKNIDRNNAAEKINVALKTLHQNRITQILPHSGTVGNVVKFTTCGTDGIVALWDLKNHPSLV”, which “soluble on expression in E. coli” value is on record?
**A.** not soluble

**Q.** Which “soluble on expression in E. coli” value does the source give for “QVQLVESGGGLVQPGGSLRLSCATSGFTFTDYYMSWVRQPPGKALEWLGFIRNKANGYTTEYSASVKGRFTISRDNSQSILYLQMNTLRAEDSATYYCARDGSYAMDYWGQGTSVTVSSASTKGPSVFPLAPSSKSTSGGTAALGCLVKDYFPEPVTVSWNSGALTSGVHTFPAVLQSSGLYSLSSVVTVPSSSLGTQTYICNVNHKPSNTKVDKKVEP” here?
**A.** soluble

**Q.** With “MGHHHHHHGGHMSLLTFVGLGLWDVKDISVKGLEAVREADEVYVEYYTSKLLSSIEEMEEFFGKRVVELERSDLEENSFRLIERAKSKSVVLLVPGDPMVATTHSAIKLEAERKGVKTRIIHGASISTAVCGLTGLHNYRFGKSATVSWHRSQTPVNVIKANRSIDAHTLLFLDLHPEPMTIGHAVENLIAEDAQMKDLYAVGIARAGSGEEVVKCDRLENLKKIDFGKPLHVMVVLAKTLHFMEFECLREFADAPAELERLVAEGGS” as the sequence, how does the “soluble on expression in E. coli” value read?
**A.** soluble

**Q.** For “MYKRYVAQIIFALTILISAPSWAETEETGPKLAYFTLEPDLTTNFYTKGKKLGYVQVRIDIMVMSQQDLAIVEHHQPLIRDAVIELLGKQTEDTIKSLSGREDLRKTLVKELNETLLPETGKTVIADLLFTKYLYQ”, which “soluble on expression in E. coli” value is on record?
**A.** not soluble

**Q.** With “MTLNAFIEKLSTQPELIEFTETMAVIESHYEFTPTEFANGNTVNLADQNNGSCKIFAFALLNQLSVDQTLACFGQYYRQDVLENPQGDDHQNIRNFMVTGWAGVQFKAQALQAK” as the sequence, how does the “soluble on expression in E. coli” value read?
**A.** not soluble

**Q.** Which “soluble on expression in E. coli” value does the source give for “MGSDKIHHHHHHVHPTLPHAGKNWPLSARDSPATAMAGKGINAVCLFRYQRRWHQSCFILEHAPGTRNPMTWTECLAVTAFGAFVIDRYDWTGTVKRSSNDEELLVHERLGVVSVQTSPLRRAKPALRHLRGLLIEYDCPVECIAVFAAPHCALDPTLPETTLQASELHHFMRTRFNRFRDSHRQYLDSERIAAYLQLHCTDWGENCV” here?
**A.** not soluble

**Q.** With “GMASVLSAATATDQGPVRENNQDACLADGILYAVADGFGARGHHASATALKTLSAGFAAAPDRDGLLEAVQQANLRVFELLGDEPTVSGTTLTAVAVFEPGQGGPLVVNIGDSPLYRIRDGHMEQLTDDHSVAGELVRMGEITRHEARWHPQRHLLTRALGIGPHIGPDVFGIDCGPGDRLLISSDGLFAAADEALIVDAATSPDPQVAVRRLVEVANDAGGSDNTTVVVIDLG” as the sequence, how does the “soluble on expression in E. coli” value read?
**A.** soluble

**Q.** Which “soluble on expression in E. coli” value does the source give for “MAGFAVNLKVVLNSDAVFGTACKRGGGAPETCLLEDMGLEREDIEPFGYEKDKDREILVWHTKTSTPNIVKSNKNSTKKAPPPDTFGYFVEA” here?
**A.** not soluble

**Q.** For “MPSSIICDVSHEGEASGGPSPSSRISNGFSHTVCDLHHNFPIVKNRRKYHNSISTQSSSSTTTSLERISTSTCTSTSSSASDAIISRAEKDVQTFLVSDESTTGDHEEEEEDDEDGDDESDHNDYDYEDDGERSEHDHEQTDNDDDEDEIEPFVSSWCFAMGTQRSVMSSVGEKAPKSNVKSMEDWELDVVERAHRESHLAELYADLSWRFYTHPPTSFCLARVFLRHGLTGNEGVSSWKLPRKANRRNSSCSSISSVSESSSPSALDESTLTKILPTDNFRGGRGFASPSPPTSLLSEPLSRMDVLSEKIWDYHNKVSQTDEMLQRKLHLRDMLYTAISPVFPLSGLYVVGSSLNGFGNNSSDMDLCLMITNKDLDQKNDAVVVLNLILSTLQYEKFVESQKLILAKVPILRINFAAPFDDITVDLNANNSVAIRNTHLLCYYSSYDWRVRPLVSVVKEWAKRKGINDANKSSFTSYSLVLMVIHFLQCGPTKVLPNLQQSYPNRFSNKVDVRTLNVTMALEEVADDIDQSLSEKTTLGELLIGFLDYYANEFNYDRDAISIRQGRRVERAALAVRPKIHSNSEGDKETPPPSSSASTSSIHNGGTPGIPMHHSISNPHFWRSQWRCVCIEEPFTNSNTAHSIYDEMVFEAIKKAFREAHGELQHNHDLDKLMECEPIKASTTNTGAAVFAATYEGERPLAQQPNTIACASLRVLNSIPVSSGPGHYHYQQQSNQNLSRPQRPGSNQGYQMNNNRGFNGNNQQQHQNRRSFNNQSSSNPGNGSTGPRSSRSNENVRDSSRQQNSQKGSSGVSVSKENVASTTGVPVDKKQQNSNRKDDGNRTKRSPMVQSPEPAKTKSEKTPMASSNVSQ”, which “soluble on expression in E. coli” value is on record?
**A.** not soluble

**Q.** With “GSPIPHHDEKTWNVGSSNRNKAENLLRGKRDGTFLVRESSKQGCYACSVVVDGEVKHCVINKTATGYGFAEPYNLYSSLKELVLHYQHTSLVQHNDSLNVTLAYPVYAQQRR” as the sequence, how does the “soluble on expression in E. coli” value read?
**A.** soluble

**Q.** Which “soluble on expression in E. coli” value does the source give for “MSTNKRRTIQIEITEEHFKDLEKALEALKGTQLPFSTTVEQFVELILSNYVATSNKISNLAESGFDVASIQQELEKIGSAAGADDALKSFLDELLKTSQKSFSNTKDGKKNDDDNNSSSKS” here?
**A.** soluble
